Paper PMC4595200, “In vitro analyses of mitochondrial ATP/phosphate carriers from Arabidopsis thaliana revealed unexpected Ca^2+-effects” (BMC Plant Biology, 2015)

B1: AtAPC1 (Arabidopsis thaliana) (protein)
chain: MEAEKSKQNPGKKPVEATMEHVLVALRETKEKREIRIQKLFEFFDNSKLGFLDDTQIEKGLSSLSIPPKYRYASDFLKVCDSNRDGRVDYQEFRRYMDAKELELYKIFQAIDIEHNGDICPAELWEALDKAGIKIKDEELASFMEHVDKDNNGIITFEEWRDFLLLNPHEATIENIYHHWERVCLIDIGEQAVIPDGISAHAQRSKLLLAGGIAGAVSRTATAPLDRLKVALQVQRTNLGVVPTIKKIWREDKLLGFFRGNGLNVAKVAPESAIKFAAYEMLKPIIGGADGDIGTSGRLLAGGLAGAVAQTAIYPMDLVKTRLQTFVSEVGTPKLWKLTKDIWIQEGPRAFYRGLCPSLIGIIPYAGIDLAAYETLKDLSRAHFLHDTAEPGPLIQLGCGMTSGALGASCVYPLQVIRTRMQADSSKTSMGQEFLKTLRGEGLKGFYRGIFPNFFKVIPSASISYLVYEAMKKNLALD
B2: AtAPC2 (Arabidopsis thaliana) (protein)
chain: MEATKSSKQNCCNPVKKPGPVSIDHVLLALRETREERDLRIRSLFSFFDSENVGYLDCAQIEKGLCALQIPSGYKYAKELFRVCDANRDGRVDYHEFRRYMDDKELELYRIFQAIDVEHNGCISPEGLWDSLVKAGIEIKDEELARFVEHVDKDNDGIIMFEEWRDFLLLYPHEATIENIYHHWERVCLVDIGEQAVIPEGISKHIKRSNYFIAGGIAGAASRTATAPLDRLKVLLQIQKTDARIREAIKLIWKQGGVRGFFRGNGLNIVKVAPESAIKFYAYELFKNAIGENMGEDKADIGTTVRLFAGGMAGAVAQASIYPLDLVKTRLQTYTSQAGVAVPRLGTLTKDILVHEGPRAFYKGLFPSLLGIIPYAGIDLAAYETLKDLSRTYILQDAEPGPLVQLGCGTISGALGATCVYPLQVVRTRMQAERARTSMSGVFRRTISEEGYRALYKGLLPNLLKVVPAASITYMVYEAMKKSLELD
B3: AtAPC3 (Arabidopsis thaliana) (protein)
chain: MESSKPKNRNPMKKPVSITMEHVLLALRETMDEREIRIRSLFDFFDNSNLGFLDYAQIEKGLASLQIPPEYKYARDLFRVCDANRDGRVDYQEFRRYIDAKELELYRIFQAIDVEHNGCILPEELWEALVKAGIEIDDEELARFVEHVDKDNNGTITFEEWRDFLLLYPHEATLENIYHHWERVCLIDIGEQAVIPDGISKHVKRSRLLLAGGLAGAVSRTATAPLDRLKVVLQVQRAHAGVLPTIKKIWREDKLMGFFRGNGLNVMKVAPESAIKFCAYEMLKPMIGGEDGDIGTSGRLMAGGMAGALAQTAIYPMDLVKTRLQTCVSEGGKAPKLWKLTKDIWVREGPRAFYKGLFPSLLGIVPYAGIDLAAYETLKDLSRTYILQDTEPGPLIQLSCGMTSGALGASCVYPLQVVRTRMQADSSKTTMKQEFMNTMKGEGLRGFYRGLLPNLLKVVPAASITYIVYEAMKKNMALD

What was measured:
purified protein [1] = substrate: Nc1ncnc2c1ncn2[C@@H]1O[C@H](COP(=O)(O)OP(=O)(O)OP(=O)(O)O)[C@@H](O)[C@H]1O; assay: purified protein; conditions: ATP import / Pi export (Pi-loaded, 5 mM), no added Ca2+ or Mg2+ (traces ~9 μM each), pH 7.5, 30 °C, 2.5 min, labelled compound, apparent
purified protein [2] = substrate: Nc1ncnc2c1ncn2[C@@H]1O[C@H](COP(=O)(O)OP(=O)(O)O)[C@@H](O)[C@H]1O; assay: purified protein; conditions: ADP import / ATP export (ATP-loaded, 5 mM), no added Ca2+ or Mg2+, pH 7.5, 30 °C, 2.5 min, labelled compound, apparent
[3] = substrate: Nc1ncnc2c1ncn2[C@@H]1O[C@H](COP(=O)(O)OP(=O)(O)OP(=O)(O)O)[C@@H](O)[C@H]1O; assay: radiolabelled uptake into proteoliposomes; type: biochemical, Arabidopsis thaliana; conditions: ATP import / Pi export (Pi-loaded, 5 mM), no added Ca2+ or Mg2+ (traces ~9 μM each), pH 7.5, 30 °C, 2.5 min, labelled compound, apparent
[4] = substrate: Nc1ncnc2c1ncn2[C@@H]1O[C@H](COP(=O)(O)OP(=O)(O)O)[C@@H](O)[C@H]1O; assay: radiolabelled uptake into proteoliposomes; type: biochemical, Arabidopsis thaliana; conditions: ADP import / ATP export (ATP-loaded, 5 mM), no added Ca2+ or Mg2+, pH 7.5, 30 °C, 2.5 min, labelled compound, apparent

Protein	Km (purified protein [1])	Vmax (purified protein [1])	Km (purified protein [2])	Vmax (purified protein [2])	Km [3]	Vmax [3]	Km [4]	Vmax [4]
B1	68 (6) μM	201(±14) nmol mg protein^-1 h^-1	180 (±15) μM	2078 (±315) nmol mg protein^-1 h^-1				
B2					95 (±12) μM	212 (±24) nmol mg protein^-1 h^-1	374 (±40) μM	778 (±82) nmol mg protein^-1 h^-1
B3					113 (±17) μM	282 (±20) nmol mg protein^-1 h^-1	72 (±5) μM	770 (±90) nmol mg protein^-1 h^-1
